Experiment [1] has as its system pancreatic cancer patient derived xenograft (PDX Pan0146). In words: In vivo efficacy of Trop-2 ADC, pancreatic PDX Pan0146. As to the method:
In vivo efficacy studies of Trop-2 ADC using humanized anti-Trop-2 antibody (h7E6SVG) conjugated with TG6-vc0101 were performed with target-expressing pancreatic cancer patient derived xenograft model (PDX Pan0146) from Jackson Laboratories (Bar Harbor, Me.). For efficacy studies, 1-2 mm^3 of tumor fragments were implanted subcutaneously into the lateral flanks of the animals. […] Gemcitabine was given at 75 mg/kg twice weekly for a total of 6 doses. […] Gemcitabine was given once weekly at 75 mg/kg for 4 doses. Tumor volume was measured once a week by a Caliper device and calculated with the following formula: Tumor volume=(length×width^2)/2. Studies were terminated before their tumor volumes reached 2000 mm^3.

The subject of a further experiment is BxPC3 xenograft. In words: In vivo efficacy of humanized Trop-2 ADCs, pancreatic tumor BxPC3 xenograft model. To be noted: single dose, tail vein; FIGS. 9A-9C. Set-up: species or system CB17/SCID mice. The procedure: In vivo efficacy studies of Trop-2 ADCs were performed with target-expressing BxPC3 xenograft model. Two million BxPC3 pancreatic cancer cells were implanted subcutaneously into 5-8 weeks old CB17/SCID mice until the tumor sizes reached between 300-400 mm^3. […] Tumor volume was measured once a week by a Caliper device and calculated with the following formula: Tumor volume=(length×width^2)/2. Studies were terminated before their tumor volumes reached 2000 mm^3.
On the technique in general: Xenograft models place foreign cells or tissue in a host animal.

Experiment [2] relates to ovarian cancer patient derived xenograft (PDX Ova196756). In words: In vivo efficacy of Trop-2 ADC, ovarian PDX Ova196756. The note with it: single dose, […] and 1.5 mg/kg, tail vein; FIG. 11. Set-up: species or system CB17/SCID mice. The procedure: This tumor sample was derived from surgical specimen and propagated in NSG mice (Jackson Laboratories, Bar Harbor, Me.). For efficacy studies, approximately 1-2 mm^3 of tumor fragments were implanted subcutaneously into the lateral flanks of CB17/SCID mice. […] Tumor volume was measured once a week by a caliper device and calculated with the following formula: Tumor volume=(length×width^2)/2. Studies were terminated before their tumor volumes reached 2000 mm^3.

The subject of experiment [3] is SW620 cells (Trop-2 non-expressing). In words: Cytotoxicity of ADCs (CellTiter-Glo), SW620. To be noted: Table 13; SW620, Trop2 expression −; 96 hours; concentration of total Ab. It is filed as cell-based. The procedure:
Target expressing (A431, BxPC3, CAPAN-2 and Colo205) or non-expressing (SW620) cells were seeded on white walled clear bottom plates at 2000 cells/well for 24 hours before treatment. Cells were treated with 4 fold serially diluted antibody-drug conjugates in triplicates. Cell viability was determined by CellTiter-Glo® Luminescent Cell Viability Assay 96 (Promega, Madison Wis.) 96 hours after treatment. Relative cell viability was determined as percentage of untreated control. IC50 was calculated by Prism software.
2-methylalanyl-N-[(3R,4S,5S)-3-methoxy-1-{(2S)-2-[(1R,2R)-1-methoxy-2-methyl-3-oxo-3-{[(1S)-2-phenyl-1-(1,3-thiazol-2-yl)ethyl]amino}propyl]pyrrolidin-1-yl}-5-methyl-1-oxoheptan-4-yl]-N-methyl-L-valinamide is a novel auristatin, as described in U.S. Application Nos. 61/561,255 and 61/676,423. Method of conjugating Trop-2 antibodies using transglutaminase tags is described in Example 9. Target expressing or non-expressing (SW620) cells were seeded on white walled clear bottom plates at 2000 (A431, BxPC3, NCI-H292, NCI-H1650, MDA-MB-468 and SW620), 2500 (Calu-3) or 3000 (OVCAR3 and SKBR3) cells per well for 24 hours before treatment. Cells were treated with 4 fold serially diluted antibody-drug conjugates in triplicates. Cell viability was determined by CellTiter-Glo® Luminescent Cell Viability Assay 96 (Promega, Madison, Wis.) 96 hours after treatment. Relative cell viability was determined as percentage of untreated control. IC50 was calculated by GraphPad Prism 5 software and expressed as concentration (nM) of total Ab.
On the technique in general: In ATP-based viability assays light output follows the ATP content of the culture.

For another experiment, the system named is Colo205 xenograft. Description: In vivo efficacy of Trop-2 ADCs, colorectal tumor Colo205 xenograft model. Details: species or system nu/nu mice. The note with it: single dose of 6 mg/kg, tail vein; FIG. 10. As to the method:
In vivo efficacy study of Trop-2 ADCs was performed with target-expressing colo205 xenograft model. Three millions of colo205 colon cancer cells were implanted subcutaneously into 5-8 weeks old nu/nu mice until the tumor sizes reached ˜300 mm^3. […] Tumor volume is measured once a week by a Caliper device and calculated with the following formula: Tumor volume=(length×width^2)/2. Studies were terminated before their tumor volumes reached 2000 mm^3.

The subject of experiment [4] is pancreatic cancer patient derived xenograft (PDX Pan0135). In words: In vivo efficacy of Trop-2 ADC, pancreatic PDX Pan0135. To be noted: 6 mg/kg single dose, tail vein; FIG. 14. As to the method: In vivo efficacy study of Trop-2 ADC using humanized anti-Trop-2 antibody (h7E6SVG) conjugated with PEG6MMAD was performed with target-expressing pancreatic cancer patient derived xenograft model (PDX Pan0135) from Jackson Laboratories. For efficacy studies, approximately 1-2 mm^3 of tumor fragments were implanted subcutaneously into the lateral flanks of the animals. Animals were randomized by tumor sizes once they reached ˜300 mm^3 and 6 mg/kg of h7E6SVG-N297Q/K222R-PEG6MMAD and the control conjugate were administered through bolus tail vein injection with single dose. Tumor volume was measured once a week by a Caliper device and calculated with the following formula: Tumor volume=(length×width^2)/2. Studies were terminated before their tumor volumes reached 2000 mm^3.

For experiment [5], the system named is pancreatic cancer patient derived xenograft (PDX Pan144607). Description: In vivo efficacy of Trop-2 ADC, pancreatic PDX Pan144607. Details: species or system CB17/SCID mice. To be noted: single dose of 1.5, 3.0 and 6.0 mg/kg, tail vein; FIG. 13. The procedure: In vivo efficacy study of Trop-2 ADC using humanized anti-Trop-2 antibody (h7E6SVG) conjugated with vc0101 or PEG6MMAD was performed with target-expressing pancreatic cancer patient derived xenograft model (PDX Pan144607). This tumor sample was derived from surgical specimen and propagated in NSG mice (Jackson Laboratories, Bar Harbor, Me.). For efficacy studies, approximately 1-2 mm^3 of tumor fragments were implanted subcutaneously into the lateral flanks of CB17/SCID mice. Animals were randomized by tumor sizes once they reached ˜300 mm^3, and single dose of 1.5, 3.0 and 6.0 mg/kg h7E6SVG-N297Q/K222R-PEG6MMAD and the control conjugate were administered through bolus tail vein injection. Tumor volume was measured once a week by a Caliper device and calculated with the following formula: Tumor volume=(length×width^2)/2. Studies were terminated before their tumor volumes reach 2000 mm^3.

Some results are limits rather than exact numbers.

Broadly, the IC50 is the midpoint of a concentration-inhibition curve.

B1: h7E6SVG-TG6-vc0101: h7E6SVG with heavy chain C-terminal TG6 tag (SEQ ID NO: 79) conjugated with AcLys-vc-PABC-0101 (conjugate)
VH: QVQLQESGPGLVKPSETLSLTCTVSGGSISSYGVHWIRQPPGKGLEWIGVIWTSGVTDYNSALMGRVTISVDTSKNQFSLKLSSVTAADTAVYYCARDGDYDRYTMDYWGQGTLVTVSS
VL: DIVMTQSPDSLAVSLGERATINCRASKSVSTSGYSYMHWYQQKPGQPPKLLIYLASNLESGVPDRFSGSGSGTDFTLTISSLQAEDVAVYYCQHSRELPYTFGQGTKLEIK
As to B1, the “tumor response on continuous dosing, Pan0146 PDX” value in experiment [1] ([…] weekly x4, 1.5 mg/kg bi-weekly x2 or 3.0 mg/kg single dose, FIG. 12B) is “sustained tumor regression”. For the same molecule, the “efficacy to induce tumor regression compared with gemcitabine, Pan0146 PDX” value in experiment [1] (single dose vs gemcitabine 75 mg/kg twice weekly, 6 doses, FIG. 12A) was “superior efficacy to gemcitabine”. In addition, the “tumor response, BxPC3 xenograft” value with BxPC3 xenograft is “tumor regression”. In addition, the “tumor response, ovarian PDX Ova196756” value in experiment [2] is recorded as “tumor regression”. The molecule further yielded an IC50 in experiment [3] of 0.156 µM. Also, the “tumor response, Colo205 xenograft” value with Colo205 xenograft is on record as “tumor regression”.

B2: h7E6SVG-N297Q/K222R-PEG6MMAD: h7E6SVG with N297Q/K222R mutations conjugated with PEG6-propionyl-MMAD (conjugate)
VH: B1 VH
VL: B1 VL
Regarding B2, the “tumor response, BxPC3 xenograft” value in the experiment with BxPC3 xenograft is reported as “tumor regression”. The “tumor response, Pan0135 PDX” value in experiment [4] is reported as “tumor regression”. Also, in experiment [3], the IC50 is > 0.267 µM. For the same molecule, the “tumor response, Pan144607 PDX” value in experiment [5] is given as “tumor regression”.

Source of the values: patent US10100114B2, “Antibodies specific for TROP-2 and their uses” (RINAT NEUROSCIENCE CORP., priority 2011, dated 2018).
